From the supplement of paper PMC9732359
± gives the uncertainty stated by the source.

Assay: protein stability index of a GFP-peptide fusion (yeast GPS) (PSI 1-4); higher = more stable; sorted into four equal gates, so the index is relative within each strain
Method in brief: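 Yeast carrying a pooled library were grown to mid-log phase in leucine-free medium. Each library plasmid expresses Cherry and has a tiled 17-residue yeast protein peptide fused downstream of GFP. Cells were sorted into four equal gates by GFP/Cherry ratio, and plasmids from each gate were PCR-amplified, Illumina-sequenced and assigned to strains by barcode. Summing, across gates, the read frequency times the gate number gave each peptide's protein stability index.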

Row | Sequence | protein stability index (doa10∆) | protein stability index (pdr5∆) | protein stability index (san1∆) | protein stability index (ubr1∆)
1 | KRKYDEITHPPSTTDDE [SWI3] | 3.13 ± 0.11 | 3.23 ± 0.12 | 3.18 ± 0.071 | 3.29 ± 0.082
2 | GAAGAWMMNGALQILNS [FAS2] | 1.48 ± 0.046 | 1.65 ± 0.064 | 2.08 ± 0.12 | 1.68 ± 0.057
3 | RAIDSLIQKGYLQRGDD [CDC53] | 1.68 ± 0.066 | 1.94 ± 0.069 | 2.17 ± 0.12 | 2.06 ± 0.077
4 | SAGAVFKSSVEMGKTDK [YOR098C/NUP1] | 3.5 ± 0.095 | 3.25 ± 0.1 | 3.29 ± 0.058 | 3.47 ± 0.047
5 | QNMQQSLQQMQHLQQLK [GAL11] | 2.96 ± 0.095 | 2.95 ± 0.07 | 2.94 ± 0.074 | 2.89 ± 0.098
6 | TNDRLNREAATKEVESN [DIS3] | 2.79 ± 0.14 | 2.58 ± 0.096 | 2.62 ± 0.12 | 3.1 ± 0.1
7 | LGLLLPIAASTDLPIET [RPN1] | 1.67 ± 0.049 | 2 ± 0.065 | 1.79 ± 0.076 | 2.17 ± 0.055
8 | LDNMTYSSVAGTVSRVN [RRP4] | 2.44 ± 0.049 | 2.52 ± 0.05 | 2.23 ± 0.051 | 2.21 ± 0.036
9 | AQTIGRNSKTVREFLEK [PRE6] | 2.76 ± 0.2 | 3.27 ± 0.29 | 3.29 ± 0.07 | 3.02 ± 0.14
10 | RMHLAPASKQGYLITPP [SSN2] | 1.36 ± 0.25 | 1.45 ± 0.24 | – | 1.36 ± 0.13
11 | MQGKITKVLNMKPSEIL [SMC2] | 2.48 ± 0.25 | 2.88 ± 0.18 | – | –
12 | KISGGNDKQGFPMKQGV [RPS6A] | 2.53 ± 0.071 | 2.83 ± 0.085 | 3.01 ± 0.059 | 2.85 ± 0.067
13 | SLTPTQSDSAKVEIKKV [PRP28] | 3.01 ± 0.12 | 3.39 ± 0.069 | 2.92 ± 0.093 | 3.1 ± 0.06
14 | VMTVPGIDPTRIYTNSF [RPO21] | 2.44 ± 0.072 | 2.11 ± 0.067 | 2.59 ± 0.08 | 2.1 ± 0.056
15 | PKKALKVKAGVRSANED [RRP43] | 2.84 ± 0.1 | 2.35 ± 0.088 | 2.81 ± 0.069 | 2.41 ± 0.051
16 | PSDMVIPDHLAELIPEL [SNF12] | 3.09 ± 0.08 | 3 ± 0.069 | 2.88 ± 0.11 | 2.79 ± 0.042
17 | EKNEKEREIKRRKFDPS [UBP6] | 3.3 ± 0.05 | 3.25 ± 0.051 | 3.09 ± 0.044 | 3.25 ± 0.057
18 | TIDWVEAGLQLCRQGHN [PRP8] | 2.08 ± 0.18 | 2.77 ± 0.1 | 2.08 ± 0.091 | 2.26 ± 0.085
19 | FGKKRLDLAGPLLAQLF [RPB2] | 1.44 ± 0.19 | 1.79 ± 0.16 | 1.42 ± 0.15 | 1.4 ± 0.18
20 | VTIIPLDKIYTRPISSQ [SMC2] | 1.66 ± 0.067 | 1.55 ± 0.084 | 1.64 ± 0.082 | 1.25 ± 0.045
21 | MHSYFIFKDLVTVFLFM [COB] | 1.47 ± 0.04 | 1.32 ± 0.037 | 1.36 ± 0.056 | 1.34 ± 0.025
22 | DGWVKLTYKSELSKSRA [YMR153W/NUP53] | 1.85 ± 0.062 | 1.88 ± 0.04 | 1.95 ± 0.083 | 1.84 ± 0.032
23 | SGKETASAPLCSPKLPV [DLS1] | 2.89 ± 0.049 | 3.13 ± 0.05 | 3.15 ± 0.039 | 3.14 ± 0.034
24 | YYVPYSKLMPVLKSSVY [RPC82] | 1.53 ± 0.064 | 1.85 ± 0.079 | 1.57 ± 0.098 | 1.74 ± 0.079
25 | SLASCLRSTEYSKSFEQ [POP1] | 2.58 ± 0.11 | 2.88 ± 0.13 | 2.89 ± 0.083 | 2.76 ± 0.12
26 | SKSNLIHNYDSKKSTIT [RGR1] | 3.03 ± 0.067 | 3.03 ± 0.054 | 3.05 ± 0.04 | 3.11 ± 0.038

Row | Sequence | protein stability index (doa10∆) | protein stability index (pdr5∆) | protein stability index (san1∆) | protein stability index (ubr1∆)
27 | MFNNHEIDTILSTLRME [RPN9] | – | 3.51 ± 0.2 | 2.84 ± 0.13 | 3.03 ± 0.071
28 | DENGDKNDNGGKMNNEV [SWI3] | 3.15 ± 0.084 | 3.41 ± 0.077 | 3.12 ± 0.044 | 3.33 ± 0.097
29 | EHKQLVAEIVQNVISLG [RPC82] | 2.2 ± 0.067 | 1.46 ± 0.13 | 2.16 ± 0.25 | 1.8 ± 0.1
30 | ASELANPYSSYVSQIRK [YAR002W/NUP60] | 3.22 ± 0.17 | 2.9 ± 0.13 | 2.31 ± 0.17 | 1.92 ± 0.073
31 | EPYHFISNYNTKYTDDM [SRB8] | 2.96 ± 0.11 | 2.98 ± 0.07 | 3.01 ± 0.057 | 3.19 ± 0.1
32 | HLELYTSQYGTPSTETA [PRE3] | 1.39 ± 0.043 | 1.9 ± 0.04 | 1.44 ± 0.084 | 1.64 ± 0.037
33 | SKNAQFICTTFRTDMLQ [SMC3] | 2.11 ± 0.074 | 1.49 ± 0.075 | 1.5 ± 0.13 | 1.05 ± 0.073
34 | RTPDSISVNSSSFSLTF [POP1] | 2.56 ± 0.045 | 2.62 ± 0.042 | 2.44 ± 0.045 | 2.37 ± 0.038
35 | RKFHELNDHIDDFEVNV [GRR1] | 3.07 ± 0.097 | 3.18 ± 0.1 | 2.42 ± 0.16 | 3.08 ± 0.073
36 | ILDGQDVEENRSEFIES [YJR042W/NUP85] | 3.13 ± 0.09 | 3.2 ± 0.071 | 3.48 ± 0.072 | 3.27 ± 0.038
37 | WVQLVQIIVTDGKLEPS [YJL039C/NUP192] | 1.27 ± 0.065 | 1.32 ± 0.085 | 1.19 ± 0.098 | 1.27 ± 0.07
38 | LAVKVHGGSRYATKDGV [QCR2] | 1.62 ± 0.11 | 1.18 ± 0.1 | 1.17 ± 0.26 | 1.07 ± 0.089
39 | GGSFGNREEFINKLVKA [RPL7B] | 3.01 ± 0.22 | – | – | 2.93 ± 0.078
40 | FVDLVEHFLKLNIDFGS [YML103C/NUP188] | 2.53 ± 0.067 | 2.46 ± 0.06 | 2.54 ± 0.11 | 2.84 ± 0.094
41 | LANEERLSNEMHALKNR [RGR1] | 3.32 ± 0.12 | 3.42 ± 0.07 | 3.4 ± 0.059 | 3.66 ± 0.13
42 | LFPVAAQDSLTVTIASS [RPB8] | 1.22 ± 0.053 | 1.48 ± 0.049 | 1.32 ± 0.16 | 1.61 ± 0.041
43 | IISTAIADSTHVKRITK [ECM29] | 2.94 ± 0.1 | 2.95 ± 0.092 | 2.6 ± 0.1 | 3.13 ± 0.078
44 | RIDAFNALEHKYFTESD [SSN3] | 2.72 ± 0.055 | 3 ± 0.046 | 2.95 ± 0.05 | 3.05 ± 0.052
45 | SNTNDNISIITLELESF [RGR1] | 2.54 ± 0.075 | 2.39 ± 0.081 | 2.25 ± 0.098 | 2.32 ± 0.11
46 | LDLSRSNGVLNVDNQTS [RPS17A] | – | 3.09 ± 0.22 | – | –
47 | AWGALITTFVKRSTVPL [YML103C/NUP188] | 2.46 ± 0.07 | 2.88 ± 0.072 | 2.49 ± 0.076 | 2.33 ± 0.12
48 | NDEPSHKKIKVAQPDSL [SIR2] | 2.32 ± 0.079 | 2.31 ± 0.071 | 1.63 ± 0.1 | 3.19 ± 0.055
49 | ATGISGSVSEETELFEP [ECM29] | 3.22 ± 0.083 | 3.16 ± 0.054 | 3 ± 0.08 | 3.04 ± 0.067
50 | LSQQQKDAQKKDIEKLT [YIL149C/MLP2] | 2.79 ± 0.079 | 2.95 ± 0.069 | 2.78 ± 0.064 | 2.97 ± 0.075
51 | ANTNSVTSMEAAREKKI [YIL149C/MLP2] | 3 ± 0.077 | 3.05 ± 0.078 | 3 ± 0.049 | 3.01 ± 0.047
